Patent publication US20060142192A1 (ZymoGenetics, published 2006)
Values belong to the binder of their own block, whether it stands above or below them.

Key:
human ZcytoR21x1 [1] = biological target: T1, human ZcytoR21x1 (human, UniProt Q8NFR9 24-667); assay: flow cytometry, biotinylated ligand + streptavidin-PE on stably transfected BHK cells
T1 construct: also called hcytor21x1; IL-17RE
T1 sequence: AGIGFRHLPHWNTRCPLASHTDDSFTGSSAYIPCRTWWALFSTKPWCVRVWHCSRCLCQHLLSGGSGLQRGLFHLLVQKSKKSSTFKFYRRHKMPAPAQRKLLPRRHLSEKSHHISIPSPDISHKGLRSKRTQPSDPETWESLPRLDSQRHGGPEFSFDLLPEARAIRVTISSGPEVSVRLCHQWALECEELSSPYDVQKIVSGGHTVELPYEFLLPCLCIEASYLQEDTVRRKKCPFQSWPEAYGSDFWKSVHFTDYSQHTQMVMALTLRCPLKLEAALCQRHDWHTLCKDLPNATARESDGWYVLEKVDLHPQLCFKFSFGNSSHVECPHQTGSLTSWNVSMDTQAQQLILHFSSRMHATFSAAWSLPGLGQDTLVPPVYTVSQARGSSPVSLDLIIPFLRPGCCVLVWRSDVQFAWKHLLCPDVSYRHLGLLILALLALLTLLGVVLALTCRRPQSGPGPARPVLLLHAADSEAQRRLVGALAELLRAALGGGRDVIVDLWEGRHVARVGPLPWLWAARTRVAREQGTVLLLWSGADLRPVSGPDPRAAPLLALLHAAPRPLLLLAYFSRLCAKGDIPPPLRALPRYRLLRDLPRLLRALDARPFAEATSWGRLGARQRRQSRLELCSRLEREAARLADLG

human ZcytoR21x2 [2] = biological target: T2, human ZcytoR21x2 (human, UniProt Q8NFR9 24-667); assay: as above
T2 construct: also called hcytor21x2
T2 sequence: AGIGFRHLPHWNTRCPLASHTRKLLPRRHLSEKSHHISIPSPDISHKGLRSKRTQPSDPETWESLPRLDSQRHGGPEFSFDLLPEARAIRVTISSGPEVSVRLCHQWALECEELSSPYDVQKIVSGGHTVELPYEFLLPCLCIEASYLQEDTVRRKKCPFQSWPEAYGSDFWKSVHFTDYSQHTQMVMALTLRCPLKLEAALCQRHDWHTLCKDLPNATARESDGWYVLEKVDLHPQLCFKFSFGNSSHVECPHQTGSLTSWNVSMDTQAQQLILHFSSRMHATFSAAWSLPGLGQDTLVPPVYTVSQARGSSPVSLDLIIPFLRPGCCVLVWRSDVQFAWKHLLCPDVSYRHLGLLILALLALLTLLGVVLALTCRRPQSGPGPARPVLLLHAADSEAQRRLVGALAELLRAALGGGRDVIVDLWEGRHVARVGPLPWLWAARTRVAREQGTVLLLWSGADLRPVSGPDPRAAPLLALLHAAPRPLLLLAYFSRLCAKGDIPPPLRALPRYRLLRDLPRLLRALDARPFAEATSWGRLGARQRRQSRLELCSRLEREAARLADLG

human ZcytoR21x1 [3] = biological target: T1, human ZcytoR21x1; assay: flow cytometry, biotinylated IL-17C (1 ug/ml) + streptavidin-PE on stably transfected BHK cells
Description: (§1) BHK cells stably transfected with human and mouse ZcytoR21 splice variants were plated and grown to confluency in T-75 flasks. Cells were lifted off using a non-protease reagent such as Versene (Invitrogen 15040-066), pelleted, and resuspended in a staining reagent (HBSS+1% BSA+0.1% NaAzide+10 mM HEPES) at 2×10e7 cells/ml and aliquoted to a 96-well Costar plate. IL-17C that has been labeled with biotin was independently added to cells at a concentration of 1 ug/ml. The cell/ligand mixture can be incubated for 1 hr at 4 degrees. The wells were washed 1× in staining reagent, and incubated in a secondary reagent containing staining reagent plus Streptavidin-PE (BD Pharmingen 554061) at a 1:100 ratio. The wells were incubated at 4° C. in the dark for 1 hr, followed by a 2× wash in staining media. The cells were then resuspended in a 1:1 mixture of staining media and Cytofix (BD Bioscience 554655) and incubated 10 minutes at RT. The cells were analysed by Flow Cytometry and by gating on the PE positive events for cells that bound IL-17C.

human ZcytoR21x2 [4] = biological target: T2, human ZcytoR21x2; assay: as above
Description: as §1

human ZcytoR21x6 = biological target: T3, human ZcytoR21x6 (human, UniProt Q8NFR9 24-667); assay: as above
T3 construct: also called hcytor21x6
T3 sequence: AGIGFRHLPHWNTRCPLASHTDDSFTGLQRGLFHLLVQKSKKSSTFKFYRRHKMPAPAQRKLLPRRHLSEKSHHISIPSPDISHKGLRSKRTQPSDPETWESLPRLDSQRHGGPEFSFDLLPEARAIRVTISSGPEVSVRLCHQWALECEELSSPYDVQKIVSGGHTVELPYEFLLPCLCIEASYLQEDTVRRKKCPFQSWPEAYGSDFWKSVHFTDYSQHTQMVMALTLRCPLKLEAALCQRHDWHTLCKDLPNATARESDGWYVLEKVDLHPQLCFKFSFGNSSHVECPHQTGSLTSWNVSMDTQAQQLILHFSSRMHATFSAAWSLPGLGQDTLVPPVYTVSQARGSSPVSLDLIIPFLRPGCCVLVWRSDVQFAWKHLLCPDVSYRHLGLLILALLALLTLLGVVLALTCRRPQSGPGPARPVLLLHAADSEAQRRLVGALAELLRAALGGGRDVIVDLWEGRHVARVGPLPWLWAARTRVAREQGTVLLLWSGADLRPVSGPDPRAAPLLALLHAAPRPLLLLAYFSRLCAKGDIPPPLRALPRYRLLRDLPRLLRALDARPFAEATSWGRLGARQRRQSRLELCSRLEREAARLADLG
Description: as §1

human ZcytoR21x13 = biological target: T4, human ZcytoR21x13 (human, UniProt Q8NFR9 24-667); assay: as above
T4 construct: also called hcytor21x13
T4 sequence: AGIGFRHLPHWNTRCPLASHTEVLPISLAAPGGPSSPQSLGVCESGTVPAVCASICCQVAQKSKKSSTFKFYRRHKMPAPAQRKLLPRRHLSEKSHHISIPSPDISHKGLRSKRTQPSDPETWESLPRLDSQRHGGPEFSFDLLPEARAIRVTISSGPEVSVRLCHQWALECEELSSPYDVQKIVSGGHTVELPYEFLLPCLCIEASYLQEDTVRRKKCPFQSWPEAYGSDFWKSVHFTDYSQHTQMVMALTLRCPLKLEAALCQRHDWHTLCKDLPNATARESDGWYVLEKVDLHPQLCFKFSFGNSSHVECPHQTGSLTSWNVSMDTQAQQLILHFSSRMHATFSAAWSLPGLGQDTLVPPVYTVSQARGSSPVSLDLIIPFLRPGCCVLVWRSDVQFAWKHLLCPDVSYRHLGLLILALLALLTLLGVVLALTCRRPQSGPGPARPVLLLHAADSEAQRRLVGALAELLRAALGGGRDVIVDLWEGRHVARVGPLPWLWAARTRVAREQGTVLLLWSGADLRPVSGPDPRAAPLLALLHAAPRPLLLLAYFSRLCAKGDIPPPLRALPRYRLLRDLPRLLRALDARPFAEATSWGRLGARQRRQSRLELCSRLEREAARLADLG
Description: as §1

murine ZcytoR21x6 = biological target: T5, murine ZcytoR21x6 (mouse, UniProt Q8BH06 24-637); assay: as above
T5 construct: also called mouse ZcytoR21x6; mcytor21x6
T5 sequence: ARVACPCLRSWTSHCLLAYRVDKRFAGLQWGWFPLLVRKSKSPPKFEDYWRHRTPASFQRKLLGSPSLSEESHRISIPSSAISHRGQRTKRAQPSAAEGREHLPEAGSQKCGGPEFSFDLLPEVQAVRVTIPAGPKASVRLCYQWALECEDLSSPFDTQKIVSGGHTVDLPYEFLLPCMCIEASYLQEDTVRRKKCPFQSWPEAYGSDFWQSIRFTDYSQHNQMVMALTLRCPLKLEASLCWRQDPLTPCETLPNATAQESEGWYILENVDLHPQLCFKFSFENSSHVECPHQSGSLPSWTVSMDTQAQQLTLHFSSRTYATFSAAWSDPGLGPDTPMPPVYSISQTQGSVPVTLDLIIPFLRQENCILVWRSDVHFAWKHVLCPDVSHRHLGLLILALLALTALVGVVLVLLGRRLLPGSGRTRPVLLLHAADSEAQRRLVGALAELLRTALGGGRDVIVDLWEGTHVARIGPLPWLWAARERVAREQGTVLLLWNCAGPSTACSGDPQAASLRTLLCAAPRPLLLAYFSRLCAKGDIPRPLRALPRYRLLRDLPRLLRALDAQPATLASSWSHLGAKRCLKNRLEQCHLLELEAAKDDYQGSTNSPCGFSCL
Description: as §1

binding result (human ZcytoR21x1 [1]): no binding
binding result (human ZcytoR21x2 [2]): no binding
B1: human IL-17B (biotinylated) (ligand, UniProt Q9UHF5 21-180, looked up)
chain: QPRSPKSKRKGQGRPGPLAPGPHQVPLDLVSRMKPYARMEEYERNIEEMVAQLRNSSELAQRKCEVNLQLWMSNKRSLSPWGYSINHDPSRIPVDLPEARCLCLGCVNPFTMQEDRSMVSVPVFSQVPVRRRLCPPPPRTGPCRQRAVMETIAVGCTCIF
modifications: biotin label (sites not given)

binding result (human ZcytoR21x1 [1]): no binding
binding result (human ZcytoR21x2 [2]): no binding
B2: human IL-17F (biotinylated) (ligand, UniProt Q96PD4 31-163, looked up)
chain: RKIPKVGHTFFQKPESCPPVPGGSMKLDIGIINENQRVSMSRNIESRSTSPWNYTVTWDPNRYPSEVVQAQCRNLGCINAQGKEDISMNSVPIQQETLVVRRKHQGCSVSFQLEKVLVTVGCTCVTPVIHHVQ
modifications: biotin label (sites not given)

binding result (human ZcytoR21x1 [1]): no binding
binding result (human ZcytoR21x2 [2]): no binding
B3: human IL-17D (biotinylated) (ligand, UniProt Q8TAD2 18-202, looked up)
chain: APRAGRRPARPRGCADRPEELLEQLYGRLAAGVLSAFHHTLQLGPREQARNASCPAGGRPADRRFRPPTNLRSVSPWAYRISYDPARYPRYLPEAYCLCRGCLTGLFGEEDVRFRSAPVYMPTVVLRRTPACAGGRSVYTEAYVTIPVGCTCVPEPEKDADSINSSIDKQGAKLLLGPNDAPAGP
modifications: biotin label (sites not given)

binding result (human ZcytoR21x1 [3]): binds
binding result (human ZcytoR21x2 [4]): binds
binding result (human ZcytoR21x6): binds
binding result (human ZcytoR21x13): binds
binding result (murine ZcytoR21x6): binds
B4: murine IL-17C (ligand)
chain: DPPSWGKPRSHRTLRCYSAEELSHGQAPPHLLTRSARWEQALPVALVASLEATGHRRQHEGPLAGTQCPVLRPEEVLEADTHERSISPWRYRIDTDENRYPQKLAVAECLCRGCINAKTGRETAALNSVQLLQSLLVLRRQPCSRDGTADPTPGSFAFHTEFIRVPVGCTCVLPRSTQ
modifications: biotin label in the binding assays (sites not given); unlabelled in the signalling assays
notes: also called mouse IL-17C; IL-17CmCH6
